B1: Oligo 31 (ssDNA)
DNA: GATCTCGGCGACGCACACGCGTCCTAACTCG
B2: poly(dT)31 (ssDNA)
DNA: TTTTTTTTTTTTTTTTTTTTTTTTTTTTTTT

Legend:
[1] = target: T1, hRPA (replication protein A heterotrimer RPA1+RPA2+RPA3) (human (Homo sapiens), UniProt P27694;P15927;P35244 1-616;1-270;1-121); experiment: EMSA
[2] = target: T1, hRPA (replication protein A …); experiment: EMSA; remark: listed apart in the source

T1 sequence (P27694 whole entry, chain 1 of 3): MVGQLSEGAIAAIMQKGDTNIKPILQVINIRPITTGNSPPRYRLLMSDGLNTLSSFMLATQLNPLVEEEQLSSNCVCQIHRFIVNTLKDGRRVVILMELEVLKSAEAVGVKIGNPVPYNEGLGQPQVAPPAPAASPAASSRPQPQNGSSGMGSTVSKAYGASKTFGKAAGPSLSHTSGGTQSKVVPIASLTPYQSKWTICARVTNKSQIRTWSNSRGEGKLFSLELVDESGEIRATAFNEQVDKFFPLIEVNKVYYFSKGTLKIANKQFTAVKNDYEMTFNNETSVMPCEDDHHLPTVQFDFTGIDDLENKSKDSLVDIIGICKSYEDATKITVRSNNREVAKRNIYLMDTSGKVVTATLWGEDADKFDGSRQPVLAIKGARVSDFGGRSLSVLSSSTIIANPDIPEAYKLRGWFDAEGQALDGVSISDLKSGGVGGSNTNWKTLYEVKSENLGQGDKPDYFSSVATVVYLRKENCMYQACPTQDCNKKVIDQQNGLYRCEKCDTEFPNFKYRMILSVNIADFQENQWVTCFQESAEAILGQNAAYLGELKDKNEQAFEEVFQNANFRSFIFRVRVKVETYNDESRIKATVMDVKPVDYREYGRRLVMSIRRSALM
T1 sequence (P15927 whole entry, chain 2 of 3): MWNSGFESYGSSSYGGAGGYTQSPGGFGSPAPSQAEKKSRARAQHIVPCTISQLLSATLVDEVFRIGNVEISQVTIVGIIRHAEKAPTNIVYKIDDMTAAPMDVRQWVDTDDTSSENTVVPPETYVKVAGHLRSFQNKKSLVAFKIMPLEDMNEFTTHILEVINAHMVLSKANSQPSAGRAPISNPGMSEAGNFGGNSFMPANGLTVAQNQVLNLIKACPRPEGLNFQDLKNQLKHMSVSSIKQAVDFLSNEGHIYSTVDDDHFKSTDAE
T1 sequence (P35244 whole entry, chain 3 of 3): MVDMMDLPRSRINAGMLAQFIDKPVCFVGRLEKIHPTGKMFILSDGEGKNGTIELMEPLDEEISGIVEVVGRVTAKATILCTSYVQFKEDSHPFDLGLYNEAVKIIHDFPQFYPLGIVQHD

| Binder | binding result [1] | binding signal [2] |
| --- | --- | --- |
| B1 | binds |  |
| B2 |  | ~10 fold higher affinity than Oligo 31 |

— article PMC2615627
